# According to the supplement of paper PMC10567573:
# B1: ANKRD9 (parent)
# chain: VGAAGSARQELLGDRPRWQRLLGE
# Variants of: B1
# Test: protein stability index of a GFP-peptide fusion (GPS, HEK-293T) (PSI 1-6); higher = more stable
# Conditions: c terminus: a fixed tail appended
# 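Further: lentivirally expressed fusions sorted by FACS into six bins by GFP to DsRed ratio, PSI derived from sequencing read proportions per bin multiplied by bin number.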
row,Variant,protein stability index
1,VGAAGSARQELLGDNPRWQRLLGE [R15N],3.6
2,VGAAHSARQELLGDRPRWQRLLGE [G5H],2.68
3,VGAAGSARQELLGDRPRWERLLGE [Q19E],2.58
4,VGAAGSARQEHLGDRPRWQRLLGE [L11H],2.85
5,VGAAGSARQEILGDRPRWQRLLGE [L11I],3.3
6,VGNAGSARQELLGDRPRWQRLLGE [A3N],3.19
7,VGAAGSARQENLGDRPRWQRLLGE [L11N],3.71
8,VGAAGSARQELLGDRPAWQRLLGE [R17A],3.33
9,VGAAGDARQELLGDRPRWQRLLGE [S6D],3.8
10,VGAAGSARQELLGDRPRWQRLLPE [G23P],3.22
11,VGAAGSARQELLGDTPRWQRLLGE [R15T],3.68
12,VVAAGSARQELLGDRPRWQRLLGE [G2V],2.33
13,VGAAGSDRQELLGDRPRWQRLLGE [A7D],3.65
14,VGAAGSARQELLGDRDRWQRLLGE [P16D],3.1
15,VGAAGMARQELLGDRPRWQRLLGE [S6M],3.65
16,VGAAGSARQELLGDRPRWQRDLGE [L21D],4.72
17,VGAAGSARQELMGDRPRWQRLLGE [L12M],3.43
18,VGAAGSKRQELLGDRPRWQRLLGE [A7K],2.94
19,VGAAGSARQELLGDRPRWQRLQGE [L22Q],3.64
20,VGAAGSARAELLGDRPRWQRLLGE [Q9A],3.37
21,VGAAGSARQRLLGDRPRWQRLLGE [E10R],2.71
22,VGAAGHARQELLGDRPRWQRLLGE [S6H],2.88
23,VGAAGSARQEFLGDRPRWQRLLGE [L11F],4.5
24,VGAAGSAGQELLGDRPRWQRLLGE [R8G],3.68

row,Variant,protein stability index
1,VGAAGSARQELLGDRPVWQRLLGE [R17V],3
2,VGAAGSARQELLGPRPRWQRLLGE [D14P],3.13
3,VGAAGSARQELLGDRPRWQRLLGM [E24M],3.34
4,VGFAGSARQELLGDRPRWQRLLGE [A3F],2.52
5,VGAAGSARQELLGDRPRTQRLLGE [W18T],4.63
6,VGAAGSARQELLGDRPRWQRKLGE [L21K],4
7,VGAAGSARQELLGDRPRWQRLHGE [L22H],3.53
8,VGAAGSARQEKLGDRPRWQRLLGE [L11K],3.69
9,VGAAGSARQELLSDRPRWQRLLGE [G13S],2.72
10,VGAAGSARQELLGVRPRWQRLLGE [D14V],2.27
11,VGAACSARQELLGDRPRWQRLLGE [G5C],1.49
12,VGAAGSARQELLGDRPRWQRLIGE [L22I],3.18
13,VGAAGSARQELLGDRPRWQRLLGF [E24F],2.68
14,VGAAGSARQELLCDRPRWQRLLGE [G13C],2.77
15,VCAAGSARQELLGDRPRWQRLLGE [G2C],2.24
16,VGAAGSARQELLGDRPRWQRLLGK [E24K],3.7
17,VTAAGSARQELLGDRPRWQRLLGE [G2T],3.06
18,VGAAFSARQELLGDRPRWQRLLGE [G5F],2.86
19,VGAAGSARQEVLGDRPRWQRLLGE [L11V],3.98
20,VGAAGSARYELLGDRPRWQRLLGE [Q9Y],2.27
21,VGAAGSARQELSGDRPRWQRLLGE [L12S],4.15
22,VGAAGSARQELLGDRPRGQRLLGE [W18G],5.32
23,VGAAGSARQELLGDRPRWQRLCGE [L22C],3.35
24,VGAAGSARQELLGSRPRWQRLLGE [D14S],3.25

row,Variant,protein stability index
1,VGAAGSARQELLGDRPRWQRLMGE [L22M],2.28
2,VGAAGSARQELLGDRPRWQRLLQE [G23Q],3.4
3,VGAAGSARQELLGDRPRWQRLLAE [G23A],3.1
4,VGAAGSARSELLGDRPRWQRLLGE [Q9S],3.46
5,VGAAGSARQHLLGDRPRWQRLLGE [E10H],2.6
6,VGAAGYARQELLGDRPRWQRLLGE [S6Y],2.73
7,VGAAGSARQELLGDRPRWQLLLGE [R20L],2.72
8,VGAAGSARQELLGDLPRWQRLLGE [R15L],2.51
9,VGAAGSARQELEGDRPRWQRLLGE [L12E],3.7
10,VGAAGSARLELLGDRPRWQRLLGE [Q9L],2.81
11,VGAAGSARQELLGDRPRWQRWLGE [L21W],3.23
12,VGAAGSARQELLGARPRWQRLLGE [D14A],2.83
13,VGAAGSARQELLGDRPRHQRLLGE [W18H],4.14
14,VGAAGSARKELLGDRPRWQRLLGE [Q9K],3.05
15,VGAAGSARQELLGDRPRWQRRLGE [L21R],3.11
16,VGAAGSARQELLGDRHRWQRLLGE [P16H],2.83
17,VGAAGSARQELLGDRPRWQILLGE [R20I],2.07
18,VGAAGSARQELYGDRPRWQRLLGE [L12Y],3.21
19,VGAAGSARQELLGDRPRWQRLEGE [L22E],3.87
20,VGAAGSATQELLGDRPRWQRLLGE [R8T],2.76
21,VGAAGSACQELLGDRPRWQRLLGE [R8C],3.02
22,VGAAGSMRQELLGDRPRWQRLLGE [A7M],3.87
23,VGAAGSARQELLGCRPRWQRLLGE [D14C],1.39
24,AGAAGSARQELLGDRPRWQRLLGE [V1A],3.58

row,Variant,protein stability index
1,VGAAGSARQELLGDRPRWQRLLEE [G23E],3.39
2,VGAAGSARQELLGIRPRWQRLLGE [D14I],2.56
3,VGAAGSARQELLGLRPRWQRLLGE [D14L],2.36
4,VGAMGSARQELLGDRPRWQRLLGE [A4M],3.1
5,VGAAGRARQELLGDRPRWQRLLGE [S6R],2.62
6,VGAAGSARQELLGDRPRWQRLLNE [G23N],3.12
7,VGAAGLARQELLGDRPRWQRLLGE [S6L],2.49
8,VGAAGSARQELLGDRPRWQCLLGE [R20C],2.71
9,VGAAGSARQELLGFRPRWQRLLGE [D14F],2.12
10,VGAAGSARQELLQDRPRWQRLLGE [G13Q],2.76
11,VGAGGSARQELLGDRPRWQRLLGE [A4G],1.81
12,VGAAGAARQELLGDRPRWQRLLGE [S6A],2.6
13,VGAAGSARQELLGDRPRWQRLLIE [G23I],2.88
14,EGAAGSARQELLGDRPRWQRLLGE [V1E],2.77
15,VGAAGSARQELLGDRPRWYRLLGE [Q19Y],2.59
16,QGAAGSARQELLGDRPRWQRLLGE [V1Q],3.7
17,VGAAGSARQELLGDRPRWQYLLGE [R20Y],2.62
18,VGAADSARQELLGDRPRWQRLLGE [G5D],2.48
19,GGAAGSARQELLGDRPRWQRLLGE [V1G],3.13
20,VGAAGSARTELLGDRPRWQRLLGE [Q9T],3.13
21,VGAAGSARQPLLGDRPRWQRLLGE [E10P],1.62
22,VGAAGSAAQELLGDRPRWQRLLGE [R8A],2.96
